From PMC9839372 (2023)

B1: GFP-tagged PRR14 (1-212) wild-type fragment [human] / Heterochromatin Protein 1 gamma (HP1γ) [human (endogenous in Lenti-X 293T)] (parent complex)
chain 1: MDLPGDSSPPGQPRLCRQPLTRALWGARSPKRPRLQLPGAPSPLEKASRRVLAVVLEDVMAVHMVPVVPSKQTSIPQHHSYHQDPVHRQPPASPPRQAGWSSQARPPDPLCLCREPLSRIHRTSSTLRRRSRTTPGPEEGPSQKVDRAPQPTLVVMLEDIASPRPPAEGFIDETPNFIIPAQRAEPMRIVRQPTPPPGDLEPPFQPSALPAD
chain 2: not shown
B2: GFP-tagged PRR14 (1-212) wild-type fragment [human] / Heterochromatin Protein 1 beta (HP1β) [human (endogenous in Lenti-X 293T)] (parent complex)
chain 1: B1 chain 1
chain 2: not shown

Variants of: B1
Assay: co-immunoprecipitation (anti-GFP IP) with Western blot, band intensity quantified; lysates of 293T cells expressing GFP-PRR14 (1-212) constructs; n = 3 independent immunoprecipitations; parent: 95; read off a plot

response | Variant
~6 | chain 1 V54E, chain 1 V55E, chain 1 V154E, chain 1 V155E
~17 | chain 1 V54E, chain 1 V55E
~95 | chain 1 V154E, chain 1 V155E

Variants of: B2
Assay: co-immunoprecipitation (anti-GFP IP) with Western blot, band intensity quantified; lysates of 293T cells expressing GFP-PRR14 (1-212) constructs; n = 3 independent immunoprecipitations; parent: 91; read off a plot

response | Variant
~35 | chain 1 V54E, chain 1 V55E
~43 | chain 1 V54E, chain 1 V55E, chain 1 V154E, chain 1 V155E
~91 | chain 1 V154E, chain 1 V155E
